From US20200024330A1

How the values were obtained:
Assay in all cases: cell-based or functional assay
[1] = biological target: HIV-1 Env of isolate MGRM-Chronic-B-023 (HIV-1)
[2] = biological target: HIV-1 Env of isolate MGRM-AG-002 (HIV-1)
[3] = biological target: HIV-1 Env of isolate MGRM-AE-006 (HIV-1)
[4] = biological target: HIV-1 Env of isolate MGRM-AG-001 (HIV-1)
[5] = biological target: HIV-1 Env of isolate MGRM-Chronic-B-018 (HIV-1)
[6] = biological target: HIV-1 MGRM-F1-015 Env (pseudovirus) (HIV-1)
[7] = biological target: HIV-1 Env of isolate MGRM-AG-011 (HIV-1)
[8] = biological target: HIV-1 Env of isolate MGRM-Chronic-B-012 (HIV-1)
[9] = biological target: HIV-1 Env of isolate MGRM-AE-004 (HIV-1)
[10] = biological target: HIV-1 Env of isolate MGRM-AG-012 (HIV-1)
[11] = biological target: HIV-1 Env of isolate MGRM-AG-003 (HIV-1)
[12] = biological target: HIV-1 Env of isolate MGRM-AG-006 (HIV-1)
[13] = biological target: HIV-1 Env of isolate MGRM-AG-013 (HIV-1)
[14] = biological target: HIV-1 Env of isolate MGRM-G-004 (HIV-1)
[15] = biological target: HIV-1 Env of isolate MGRM-G-009 (HIV-1)
[16] = biological target: HIV-1 Env of isolate MGRM-Chronic-B-020 (HIV-1)
[17] = biological target: HIV-1 Env of isolate MGRM-Chronic-B-017 (HIV-1)
[18] = biological target: HIV-1 Env of isolate MGRM-AG-008 (HIV-1)
[19] = biological target: HIV-1 97ZA012 envelope glycoprotein (Env) on pseudovirus (HIV-1)
[20] = biological target: HIV-1 Env of isolate MGRM-Chronic-B-011 (HIV-1)
[21] = biological target: HIV-1 92RW020 envelope glycoprotein (Env) on pseudovirus (HIV-1)
[22] = biological target: HIV-1 Env of isolate MGRM-Chronic-B-024 (HIV-1)
[23] = biological target: HIV-1 Env of isolate MGRM-D-004 (clade D) (HIV-1)
[24] = biological target: HIV-1 Env of isolate MGRM-Chronic-B-010 (HIV-1)
[25] = biological target: HIV-1 92UG024 envelope glycoprotein (Env) on pseudovirus (HIV-1)
[26] = biological target: HIV-1 Env of isolate MGRM-AE-008 (HIV-1)
[27] = biological target: HIV-1 Env of isolate MGRM-AG-005 (HIV-1)
[28] = biological target: HIV-1 Env of isolate MGRM-AE-007 (HIV-1)
[29] = biological target: HIV-1 Env of isolate MGRM-AG-009 (HIV-1)
[30] = biological target: HIV-1 Env of isolate MGRM-G-006 (HIV-1)
[31] = biological target: HIV-1 92TH021 envelope glycoprotein (Env) on pseudovirus (HIV-1)
[32] = biological target: HIV-1 NL43 envelope glycoprotein (Env) on pseudovirus (HIV-1)
[33] = biological target: HIV-1 Env of isolate MGRM-AE-005 (HIV-1)
[34] = biological target: aMLV envelope (negative control pseudovirus)
[35] = biological target: HIV-1 92BR020 envelope glycoprotein (Env) on pseudovirus (HIV-1)
[36] = biological target: HIV-1 Env of isolate MGRM-G-001 (HIV-1)
[37] = biological target: HIV-1 Env of isolate JRFL (HIV-1)

1443_C16 (PG16) (TCN-116) (antibody), sequence (VH): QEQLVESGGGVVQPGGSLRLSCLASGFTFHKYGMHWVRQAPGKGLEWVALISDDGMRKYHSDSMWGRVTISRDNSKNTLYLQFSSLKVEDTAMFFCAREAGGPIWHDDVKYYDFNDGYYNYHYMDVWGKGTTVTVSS
1443_C16 (PG16) (TCN-116) (antibody), sequence (VL): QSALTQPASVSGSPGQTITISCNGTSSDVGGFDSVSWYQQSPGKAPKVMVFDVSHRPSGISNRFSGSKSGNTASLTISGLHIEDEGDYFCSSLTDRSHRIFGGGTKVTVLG

Substance | IC50 (µg/ml), pseudovirus neutralization [1] | IC50 (µg/ml), pseudovirus neutralization [2] | IC50 (µg/ml), pseudovirus neutralization [3] | IC50 (µg/ml), pseudovirus neutralization [4] | IC50 (µg/ml), pseudovirus neutralization [5] | IC50 (µg/ml), pseudovirus neutralization [6] | IC50 (µg/ml), pseudovirus neutralization [7] | IC50 (µg/ml), pseudovirus neutralization [8] | IC50 (µg/ml), pseudovirus neutralization [9] | IC50 (µg/ml), pseudovirus neutralization [10] | IC50 (µg/ml), pseudovirus neutralization [11] | IC50 (µg/ml), pseudovirus neutralization [12] | IC50 (µg/ml), pseudovirus neutralization [13] | IC50 (µg/ml), pseudovirus neutralization [14] | IC50 (µg/ml), pseudovirus neutralization [15] | IC50 (µg/ml), pseudovirus neutralization [16] | IC50 (µg/ml), pseudovirus neutralization [17] | IC50 (µg/ml), pseudovirus neutralization [18] | IC50 (µg/ml), pseudovirus neutralization [19] | IC50 (µg/ml), pseudovirus neutralization [20] | also measured
4E10 (antibody) | 27.9 µg/mL | 0.8 µg/mL | 0.23 µg/mL | 1.12 µg/mL | 23.2 µg/mL | 0.53 µg/mL | 1.36 µg/mL | 48 µg/mL | 1.27 µg/mL | 0.86 µg/mL | 0.64 µg/mL | 1.76 µg/mL | 2.61 µg/mL | 1.47 µg/mL | 1.34 µg/mL | 2.45 µg/mL | 2.77 µg/mL | 1.48 µg/mL | 4.7 µg/mL | 1.07 µg/mL | IC90 (pseudovirus neutralization) [21]: 36.1 µg/mL; IC50 (µg/ml), pseudovirus neutralization [22]: 9.19 µg/mL; IC50 (µg/ml), pseudovirus neutralization [23]: 1.58 µg/mL; IC50 (µg/ml), pseudovirus neutralization [24]: 1.69 µg/mL; IC90 (pseudovirus neutralization) [25]: 23.7 µg/mL; IC50 (µg/ml), pseudovirus neutralization [26]: 0.94 µg/mL; IC50 (µg/ml), pseudovirus neutralization [27]: 2.13 µg/mL; IC50 (µg/ml), pseudovirus neutralization [28]: 0.45 µg/mL; IC50 (µg/ml), pseudovirus neutralization [29]: 31.4 µg/mL; IC50 (µg/ml), pseudovirus neutralization [30]: 1.23 µg/mL; IC90 (pseudovirus neutralization) [31]: 23.5 µg/mL; IC90 (pseudovirus neutralization) [32]: 29.6 µg/mL; IC50 (µg/ml), pseudovirus neutralization [33]: 0.47 µg/mL; IC50 (µg/ml), pseudovirus neutralization [34]: > 50 µg/mL; IC90 (pseudovirus neutralization) [35]: > 50 µg/mL; IC50 (µg/ml), pseudovirus neutralization [36]: 2.04 µg/mL; IC50 (µg/ml), pseudovirus neutralization [37]: 18.9 µg/mL
1443_C16 (PG16) (TCN-116) (antibody) | 0.13 µg/mL | 0.03 µg/mL | 0.03 µg/mL | 0.03 µg/mL | 0.7 µg/mL | > 50 µg/mL | 0.002 µg/mL | 3.74 µg/mL | 0.002 µg/mL | 25.1 µg/mL | > 50 µg/mL | > 50 µg/mL | 0.31 µg/mL | > 50 µg/mL | > 50 µg/mL | > 50 µg/mL | 0.02 µg/mL | 0.002 µg/mL | 2.55 µg/mL | > 50 µg/mL | IC90 (pseudovirus neutralization) [21]: > 50 µg/mL; IC50 (µg/ml), pseudovirus neutralization [22]: 0.01 µg/mL; IC50 (µg/ml), pseudovirus neutralization [23]: 0.01 µg/mL; IC50 (µg/ml), pseudovirus neutralization [24]: 0.01 µg/mL; IC90 (pseudovirus neutralization) [25]: > 50 µg/mL; IC50 (µg/ml), pseudovirus neutralization [26]: 3.25 µg/mL; IC50 (µg/ml), pseudovirus neutralization [27]: > 50 µg/mL; IC50 (µg/ml), pseudovirus neutralization [28]: 0.04 µg/mL; IC50 (µg/ml), pseudovirus neutralization [29]: > 50 µg/mL; IC50 (µg/ml), pseudovirus neutralization [30]: 2.42 µg/mL; IC90 (pseudovirus neutralization) [31]: 23.4 µg/mL; IC90 (pseudovirus neutralization) [32]: > 50 µg/mL; IC50 (µg/ml), pseudovirus neutralization [33]: 0.02 µg/mL; IC50 (µg/ml), pseudovirus neutralization [34]: > 50 µg/mL; IC90 (pseudovirus neutralization) [35]: > 50 µg/mL; IC50 (µg/ml), pseudovirus neutralization [36]: 0.15 µg/mL; IC50 (µg/ml), pseudovirus neutralization [37]: > 50 µg/mL
b12 (antibody) | > 50 µg/mL | 0.89 µg/mL | > 50 µg/mL | 11.9 µg/mL | 0.66 µg/mL | > 50 µg/mL | > 50 µg/mL | > 50 µg/mL | > 50 µg/mL | 10.4 µg/mL | > 50 µg/mL | > 50 µg/mL | > 50 µg/mL | > 50 µg/mL | > 50 µg/mL | 6.16 µg/mL | 2.59 µg/mL | > 50 µg/mL | > 50 µg/mL | 2.11 µg/mL | IC90 (pseudovirus neutralization) [21]: > 50 µg/mL; IC50 (µg/ml), pseudovirus neutralization [22]: > 50 µg/mL; IC50 (µg/ml), pseudovirus neutralization [23]: > 50 µg/mL; IC50 (µg/ml), pseudovirus neutralization [24]: > 50 µg/mL; IC90 (pseudovirus neutralization) [25]: > 50 µg/mL; IC50 (µg/ml), pseudovirus neutralization [26]: > 50 µg/mL; IC50 (µg/ml), pseudovirus neutralization [27]: > 50 µg/mL; IC50 (µg/ml), pseudovirus neutralization [28]: > 50 µg/mL; IC50 (µg/ml), pseudovirus neutralization [29]: > 50 µg/mL; IC50 (µg/ml), pseudovirus neutralization [30]: > 50 µg/mL; IC90 (pseudovirus neutralization) [31]: > 50 µg/mL; IC90 (pseudovirus neutralization) [32]: 0.28 µg/mL; IC50 (µg/ml), pseudovirus neutralization [33]: 0.63 µg/mL; IC50 (µg/ml), pseudovirus neutralization [34]: > 50 µg/mL; IC90 (pseudovirus neutralization) [35]: > 50 µg/mL; IC50 (µg/ml), pseudovirus neutralization [36]: > 50 µg/mL; IC50 (µg/ml), pseudovirus neutralization [37]: 0.02 µg/mL
